Target: HER2 receptor (human (endogenous in SKBR3)) (UniProt P04626)
Test: BLI

Kd: 1 nM
Substance: Thiomab Tras-LC-V205C

— article PMC8972253
